The text below walks through data of patent US20160131655A1.

For this experiment, the target named is BCMA (B cell maturation antigen) protein on the cell surface of human multiple myeloma cells (human) (UniProt Q02223). Briefly: FACS on OPM-2 cells, Alexa488-labeled antibody.
UniProt Q02223, sequence (Q02223 whole entry N81S): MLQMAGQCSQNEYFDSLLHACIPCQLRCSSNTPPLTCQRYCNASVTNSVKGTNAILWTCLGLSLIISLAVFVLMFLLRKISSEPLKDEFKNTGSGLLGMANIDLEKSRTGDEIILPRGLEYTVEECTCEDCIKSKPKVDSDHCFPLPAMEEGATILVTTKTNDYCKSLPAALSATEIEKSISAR

The substance “anti-BCMA antibody MAB193 (clone 335004, rat IgG2a, R&D Systems #MAB193)” had a Mean Fluorescence Signal of 371.

For “anti-BCMA antibody Vicky-1 (rat IgG1, GeneTex #GTX17323)”, the Mean Fluorescence Signal was determined as 609.
